Test results from US20250101133A1 (CENTRE NATIONAL DE LA RECHERCHE SCIENTIFIQUE, published 2025).

T1: recombinant human NEDP1 protein (human, UniProt Q96LD8 1-212)
T1 construct: also called deNEDDylating enzyme NEDP1; NEDP1 enzyme
T1 sequence (looked up): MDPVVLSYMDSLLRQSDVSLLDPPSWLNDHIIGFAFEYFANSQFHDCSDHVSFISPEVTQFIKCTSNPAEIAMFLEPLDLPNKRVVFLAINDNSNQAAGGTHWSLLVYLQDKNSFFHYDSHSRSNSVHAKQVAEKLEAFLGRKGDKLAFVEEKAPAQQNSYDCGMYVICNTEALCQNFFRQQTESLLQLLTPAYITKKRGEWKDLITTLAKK

T2: endogenous NEDP1 in U2OS cell extracts (human, UniProt Q96LD8 1-212)
T2 construct: Untagged native protein, co-immunoprecipitated from cell lysate
T2 sequence (looked up): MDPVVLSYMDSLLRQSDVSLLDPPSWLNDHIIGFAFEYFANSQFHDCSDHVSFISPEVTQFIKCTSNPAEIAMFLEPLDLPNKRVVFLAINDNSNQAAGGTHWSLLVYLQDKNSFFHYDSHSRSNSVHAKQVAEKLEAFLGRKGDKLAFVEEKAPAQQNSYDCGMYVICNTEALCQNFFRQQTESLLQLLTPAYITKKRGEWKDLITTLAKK


Experiments:
[1] = target: T1, recombinant human NEDP1 protein; assay: SPR and ELISA
Protocol: (§1) FIGS. 1A-1C: FIG. 1A Table showing the different Nanobodies isolated and their binding specificity towards the immunogen human NEDP1 and ULP-3, the C. elegans homologue of NEDP1 (−poor/no binding, + indicates binding affinity/specificity). FIG. 1B ELISA test, showing the binding of indicated Nanobodies (300 ng) against increasing amounts of coated recombinant human NEDP1. FIG. 1C Table showing the SPR (Surface Plasmon Resonance) analysis and binding affinities for indicated Nanobodies against human NEDP1.
(§2) Nbs affinities for NEDP1 were determined on a Biacore 2000 apparatus (Biacore AB, Uppsala, Sweden). Nanobodies (355 nM) were immobilized on anti-His6 antibody covalently immobilized on a carboxymethyl dextran sensorchip (CM5 Biacore AB) using the amine coupling method according to the manufacturer's instructions. The immobilization level was 500 resonance units (RU). Different concentrations of NEDP1 ranging from 0.75 to 200 nM in HEPES-buffered saline (0.01 M HEPES, pH 7.4, 0.15 M NaCl, 3 mM EDTA, 0.005% surfactant P20) were injected and exposed to the Nb. All sensorgrams were fitted by subtracting the signal from the reference flow cell and were treated using BIA evaluation version 3.2 software (Biacore AB).

[2] = target: T2, endogenous NEDP1 in U2OS cell extracts; assay: anti-Flag immunoprecipitation from U2OS cell extracts, western blot with anti-NEDP1
Protocol: FIGS. 4A-4B: FIG. 4A Extracts from empty pcDNA3 vector (vect.) or stably expressing Nanobody 2/Nanobody 9-Flag (AbR2DP12/AbR2DP46) U2OS cells were used for anti-Flag immunoprecipitations. Total cell extracts (input) and eluates were used for western blot analysis with the indicated antibodies. FIG. 4B U2OS cells described above were lysed in 2×SDS buffer and extracts were analysed by western blotting with the indicated antibodies.
U2OS cells either with empty pcDNA3 vector or stably expressing Nb2/Nb9-Flag constructs were lysed in 50 mM Tris-HCl, pH 7.4, 100 mM KCl, 1% NP-40, 2 mM EDTA, protease inhibitors (complete EDTA-free, Roche) for 15 min on ice. After centrifugation at 13000 rpm for 15 min at 4° C. extracts were used for immunoprecipitations overnight at 4° C. with 20 μl of pre-washed Flag beads. Next day beads were washed 3× with 500 μl of lysis buffer, resuspended in 50 μl of 2×SDS Laemmli buffer and boiled for 5 min. Eluates were analysed by western blotting.

[3] = target: T1, recombinant human NEDP1 protein; assay: SPR
Protocol: as §1, §2

Row | Binder | binding result [1] | binding result [2] | also measured
1 | AbR2DP46, purified His6-tagged nanobody (VHH, Llama VHH, recloned into pHEN6 and purified from E. coli periplasm as a His6-tagged protein; also called Nb9; Nanobody 9; not shown: His6 tag from vector pHEN6) VHH: QVQLQESGGGLVQAGGSLRLSCAASGSPFSIGTMAWYRQAPGNQRASVAAITRGGATTYANSVKGRFTVSRDNAKNTVYLQMNSLKPEDTAAYYCSVWAGDRAYWGQGTQVTVSS | binds | – | –
2 | Nb9-Flag (AbR2DP46 with Flag tag, stably expressed in U2OS cells) (VHH, Expressed inside U2OS cells from a pcDNA3 construct; also called Nanobody 9-Flag; AbR2DP46-Flag; not shown: Flag tag) VHH: QVQLQESGGGLVQAGGSLRLSCAASGSPFSIGTMAWYRQAPGNQRASVAAITRGGATTYANSVKGRFTVSRDNAKNTVYLQMNSLKPEDTAAYYCSVWAGDRAYWGQGTQVTVSS | – | binds | –
3 | AbR2DP35, purified His6-tagged nanobody (VHH, Llama VHH, purified as a His6-tagged protein; also called Nb7; Nanobody 7; not shown: His6 tag from vector pHEN6) VHH: QVQLQESGGGLVQPGGSLTLSCAASGVMFSTGVMGWYRQAPGKQREAVAAITSGGLTTYKDSVKGRFAISRDNTKSTGYLQMNRLRPEDTAVYYCNVRGYWGQGTQVTVSS | – | – | binding result [3]: binds
4 | AbR2DP12, purified His6-tagged nanobody (VHH, Llama VHH, recloned into pHEN6 and purified from E. coli periplasm as a His6-tagged protein; also called Nb2; Nanobody 2; not shown: His6 tag from vector pHEN6) VHH: QVQLQESGGGLVQAGGSLRLSCAASGSTSSFNVMAWYHQAPGKQRESVASITSGGITVYRDSVKGRFAISSDNAKNTVFLQMNSLKPEDTGVYYCGGVVDGRVYRGQGTQVTVSS | binds | – | –
5 | Nb2-Flag (AbR2DP12 with Flag tag, stably expressed in U2OS cells) (VHH, Expressed inside U2OS cells from a pcDNA3 construct; also called Nanobody 2-Flag; AbR2DP12-Flag; not shown: Flag tag) VHH: QVQLQESGGGLVQAGGSLRLSCAASGSTSSFNVMAWYHQAPGKQRESVASITSGGITVYRDSVKGRFAISSDNAKNTVFLQMNSLKPEDTGVYYCGGVVDGRVYRGQGTQVTVSS | – | binds | –
6 | AbR2DP47, purified His6-tagged nanobody (VHH, Llama VHH, recloned into pHEN6 and purified from E. coli periplasm as a His6-tagged protein; also called Nb10; Nanobody 10; not shown: His6 tag from vector pHEN6) VHH: QVQLQESGGGLVEPGGSLRLSCAASGSISSINVMAWYRQAPGKQRESVAAISSFGITTYSETVKGRFTASRDNAKNTMYLQMNNLKPEDTAVYYCKGPNTDWGQGTQVTVSS | binds | – | –
